We go through six molecules from article PMC4575208, “Characterization of Flavin-Containing Opine Dehydrogenase from Bacteria” (PLoS ONE, 2015).

For series [1], the target named is T1, PpOdhB (beta-subunit of PpOpnDH, PpOdhABC) (Pseudomonas putida, UniProt Q88EK5+Q88EK6).
T1 construct: gene ooxB; N-terminal (His)6-tagged PpOdhB in the PpOdhABC complex (α4β4γ4); with PpOdhA (PP_4456) and PpOdhC
T1 sequence (Q88EK5 1-375): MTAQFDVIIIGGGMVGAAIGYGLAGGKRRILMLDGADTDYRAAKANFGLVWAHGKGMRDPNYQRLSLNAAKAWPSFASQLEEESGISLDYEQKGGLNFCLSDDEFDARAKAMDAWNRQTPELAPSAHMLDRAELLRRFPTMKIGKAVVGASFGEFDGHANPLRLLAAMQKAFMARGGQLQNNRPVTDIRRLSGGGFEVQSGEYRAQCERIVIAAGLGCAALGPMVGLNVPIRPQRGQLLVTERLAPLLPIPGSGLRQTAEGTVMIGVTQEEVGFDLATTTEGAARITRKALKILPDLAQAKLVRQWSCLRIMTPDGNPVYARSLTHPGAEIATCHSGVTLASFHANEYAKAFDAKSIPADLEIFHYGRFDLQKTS
T1 sequence (Q88EK6 2-464): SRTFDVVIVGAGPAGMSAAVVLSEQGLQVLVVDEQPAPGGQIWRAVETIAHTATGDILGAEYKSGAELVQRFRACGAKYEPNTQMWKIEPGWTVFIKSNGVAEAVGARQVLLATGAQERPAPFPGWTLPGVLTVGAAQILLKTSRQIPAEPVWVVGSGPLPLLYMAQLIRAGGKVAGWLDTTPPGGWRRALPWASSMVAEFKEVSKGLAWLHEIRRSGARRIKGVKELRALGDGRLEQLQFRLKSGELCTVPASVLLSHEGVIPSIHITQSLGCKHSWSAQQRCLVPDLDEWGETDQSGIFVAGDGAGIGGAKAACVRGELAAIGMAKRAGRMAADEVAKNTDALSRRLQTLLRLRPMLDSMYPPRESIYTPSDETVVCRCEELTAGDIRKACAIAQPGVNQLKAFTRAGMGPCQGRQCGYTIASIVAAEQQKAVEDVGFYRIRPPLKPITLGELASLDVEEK
Briefly: inhibition of nopaline ([…]) dehydrogenase activity of the purified enzyme. The format is biochemical.

The target of series [2] is (His)6-tagged PpOdhB, β-subunit of opine dehydrogenase from Pseudomonas putida KT2440 (Pseudomonas putida KT2440) (UniProt Q88EK5). Briefly: pull-down; PpOdhB-C-A operon with N-terminal (His)6-tag on OdhB expressed in P. putida cells; Ni-NTA chromatography in buffer with Tween-20, 300 mM NaCl, pH 8.0; bands on SDS-PAGE identified by N-terminal sequencing; molar ratio by image scanning of SDS-PAGE peak areas (ImageJ).

The target of series [3] is T2, (His)6-tagged PpOdhB, β-subunit of opine dehydrogenase from Pseudomonas putida KT2440 (Pseudomonas putida KT2440, UniProt Q88EK5 1-375).
T2 construct: PpOdhB, product of gene PP_4457 of Pseudomonas putida KT2440; first gene of the operon PpOdhB-C-A; band of 42 kDa; Carries FAD; also called PP_4457; source: P. putida KT2442-oxyR1 harboring pUCP/PpOdhABC, co-expressed from the PpOdhB-C-A operon, purified (Ni-NTA); not shown: His6, N-terminal, kept
T2 sequence (looked up): T1 sequence (Q88EK5 1-375)
The series is described as above. As to conditions: partners not purified.

Substrate in series [4]: N=C(N)NCCC[C@H](N[C@H](CCC(=O)O)C(=O)O)C(=O)O
In words: purified protein. As to conditions: FAD, FMN, [2Fe-2S] the β- and α-subunit were both necessary for substrate binding.

Substrate in series [5]: C[C@@H](N[C@@H](CCCNC(=N)N)C(=O)O)C(=O)O
Briefly: purified protein. As to conditions: FAD, FMN.

Turning to `O=C(O)CCC(=O)C(=O)O` [α-ketoglutarate], the IC50 (usually the concentration at which inhibition is half-maximal) in series [1] amounted to 589 µM.

For “PpOdhC, γ-subunit of opine dehydrogenase from Pseudomonas putida KT2440 (enzyme)”, the stoichiometry N (as a rule, a count of units in the complex or per binding partner) in series [2] came to 1.

B1: PpOdhA, α-subunit of opine dehydrogenase from Pseudomonas putida KT2440 (enzyme, UniProt Q88EK6 1-464, looked up)
chain: MSRTFDVVIVGAGPAGMSAAVVLSEQGLQVLVVDEQPAPGGQIWRAVETIAHTATGDILGAEYKSGAELVQRFRACGAKYEPNTQMWKIEPGWTVFIKSNGVAEAVGARQVLLATGAQERPAPFPGWTLPGVLTVGAAQILLKTSRQIPAEPVWVVGSGPLPLLYMAQLIRAGGKVAGWLDTTPPGGWRRALPWASSMVAEFKEVSKGLAWLHEIRRSGARRIKGVKELRALGDGRLEQLQFRLKSGELCTVPASVLLSHEGVIPSIHITQSLGCKHSWSAQQRCLVPDLDEWGETDQSGIFVAGDGAGIGGAKAACVRGELAAIGMAKRAGRMAADEVAKNTDALSRRLQTLLRLRPMLDSMYPPRESIYTPSDETVVCRCEELTAGDIRKACAIAQPGVNQLKAFTRAGMGPCQGRQCGYTIASIVAAEQQKAVEDVGFYRIRPPLKPITLGELASLDVEEK
notes: PpOdhA, product of gene PP_4456 of Pseudomonas putida KT2440; GTG used as start codon; band of 46 kDa (45 kDa in the methods); The start (GTG codon) may differ from the annotated entry; also called PP_4456
As for B1, in series [3], the “stoichiometry N” value is about 1.

B2: PpOdhB (beta-subunit of PpOpnDH, PpOdhABC) (Pseudomonas putida KT2440) (protein)
chain 1: T1 sequence (Q88EK5 1-375)
chain 2: T1 sequence (Q88EK6 2-464)
Take B2: in “purified protein [4]”, the Km (in general, the concentration of substrate that gives half-maximal velocity) stood at 0.476 mM; the kcat (as a rule, the maximal rate divided by the concentration of active sites) was determined as 315 s⁻¹; the kcat/Km – broadly, the second-order rate constant that governs catalysis at low substrate concentration – is 663000 M⁻¹ s⁻¹.

B3: BjOdhB2 (beta-subunit of BjOpnDH2, BjOdhAB2C) (Bradyrhizobium diazoefficiens USDA 110) (protein)
chain 1: MTGNVDAIVIGGGIHGCSTTLHLCLAGLKPVLIEKDYAGRHASGVNAGGVRQLARHVPEIPLSIRSMGIWERITDLLDDDCSFESHGQVLVAENEDELAVCRARVAELNALGFTHEELIDATELRRLVPAVAETCPGGVVSRRDGAANPAQTTTAFRRKAEQLGATVREGVAASNIRYSDGLWYVDVGSDTYAAPVLVNAAGAWAGKIAAALGEPVPVETVAPMLMITSRVPHFIDPVVILRGRKLSFKQFSNGTVLIGGGHLATPYQDRNETVLDWKSLAISARTVFELFPVMRSATIVRAWAGIEAKMKDDIPVFGPSSRHKGLYHQFGFSLHGFQLGPGAGAVMAELIVNGGTQTRIGDLGIDRFHPSTL
chain 2: MTVAPKREDYDVVVIGAGPAGLAAAATSAEAGLSTLLLDENIGPGGQVFRAISSTPVTDRNQLGADYWVGADLVQSLRASNAEVIQRAMVWSLDRNLDIAVSVGGASAFVKAKRVILATGALERPFPIPGWTLPGVMTAGAAQTMLKSSALVPDGRTVIAGQGPLLWLLAAQILRLGGRIDRILDTTERGNYFAALPHAFAFLTSPYFAKGLSMMREVKAKVQVVTGVTELTASGDGQLANVSYVAGGKRETLPVDLLLLHQGVVPNVNLAMAAGVEHRWDELQLCWSPVLDANGSSSVAGIAIAGDGAGIGGANAAVVRGRIAARAAVEALAPAAAAKLASMATLRADLAKAERGRAFLDTLFRPAPQFRIPSGDTIVCRCEEVTAKDVLDSVAIGATGPNQLKAYRRTGMGPCQGRLCGLTVTELMAQARGKSPQEIGYYRLRAPVKPITLAELAAVPKTEDDVKAVVRG
In the case of B3, in “purified protein [5]”, the Km is 19.5 mM, the kcat worked out at 72.8 s⁻¹ and the kcat/Km came out at 3730 M⁻¹ s⁻¹.

B4: BjOdhB1 (beta-subunit of BjOpnDH1, BjOdhAB1C) (Bradyrhizobium diazoefficiens USDA 110) (protein)
chain 1: MSGEYDVAVVGGGLLGSAIAWGLGRLGKKVAVLDEGDITKRASRANFALVWVQSKGLGMPAYTVWTVQASQAWGRLAFELKQQTGLDVSLQQNGGFHLTLGEDEFGQRTELVKRMHNQVGAADYKMEMLPASEVKKALPLIGPEVSGGSYCPLDGHVNSLRTFRAFHTGFMAFGIDYLPERPVSAISKSGGEFRLTTPKGELRAAKVVLAAGNANQTLAPMVGLHAPMGPTRGQIVVTERTMPFLPHPLTTIRQTDEGTVMIGDSKEDELDDRTLKHSISAVMTDRAQRMFPHLSRLNVIRSWAGIRVMPQDGFPIYDQSETHPGAFVACCHSGVTLASNHAFEIARMVAQGALEPELVGAFSASRFGGAGAANNSGY
chain 2: B3 chain 2
On to B4, for which, in “purified protein [5]”, the Km is 4.81 mM, the kcat came to 0.0982 s⁻¹ and the kcat/Km was determined as 20.3 M⁻¹ s⁻¹.
